Results on one variant are retold here after IntAct's records for PubMed 16227972.

The chains are these.
B1: Gigaxonin (Homo sapiens), Q9H2C0 (parent)
chain: MAEGSAVSDPQHAARLLRALSSFREESRFCDAHLVLDGEEIPVQKNILAAASPYIRTKLNYNPPKDDGSTYKIELEGISVMVMREILDYIFSGQIRLNEDTIQDVVQAADLLLLTDLKTLCCEFLEGCIAAENCIGIRDFALHYCLHHVHYLATEYLETHFRDVSSTEEFLELSPQKLKEVISLEKLNVGNERYVFEAVIRWIAHDTEIRKVHMKDVMSALWVSGLDSSYLREQMLNEPLVREIVKECSNIPLSQPQQGEAMLANFKPRGYSECIVTVGGEERVSRKPTAAMRCMCPLYDPNRQLWIELAPLSMPRINHGVLSAEGFLFVFGGQDENKQTLSSGEKYDPDANTWTALPPMNEARHNFGIVEIDGMLYILGGEDGEKELISMECYDIYSKTWTKQPDLTMVRKIGCYAAMKKKIYAMGGGSYGKLFESVECYDPRTQQWTAICPLKERRFGAVACGVAMELYVFGGVRSREDAQGSEMVTCKSEFYHDEFKRWIYLNDQNLCIPASSSFVYGAVPIGASIYVIGDLDTGTNYDYVREFKRSTGTWHHTKPLLPSDLRRTGCAALRIANCKLFRLQLQQGLFRIRVHSP

Variants of B1 are the subject of the first test. The settings on record: with uba1_human UBA1, P22314.
Sequence of uba1_human UBA1, P22314 (P22314 whole entry): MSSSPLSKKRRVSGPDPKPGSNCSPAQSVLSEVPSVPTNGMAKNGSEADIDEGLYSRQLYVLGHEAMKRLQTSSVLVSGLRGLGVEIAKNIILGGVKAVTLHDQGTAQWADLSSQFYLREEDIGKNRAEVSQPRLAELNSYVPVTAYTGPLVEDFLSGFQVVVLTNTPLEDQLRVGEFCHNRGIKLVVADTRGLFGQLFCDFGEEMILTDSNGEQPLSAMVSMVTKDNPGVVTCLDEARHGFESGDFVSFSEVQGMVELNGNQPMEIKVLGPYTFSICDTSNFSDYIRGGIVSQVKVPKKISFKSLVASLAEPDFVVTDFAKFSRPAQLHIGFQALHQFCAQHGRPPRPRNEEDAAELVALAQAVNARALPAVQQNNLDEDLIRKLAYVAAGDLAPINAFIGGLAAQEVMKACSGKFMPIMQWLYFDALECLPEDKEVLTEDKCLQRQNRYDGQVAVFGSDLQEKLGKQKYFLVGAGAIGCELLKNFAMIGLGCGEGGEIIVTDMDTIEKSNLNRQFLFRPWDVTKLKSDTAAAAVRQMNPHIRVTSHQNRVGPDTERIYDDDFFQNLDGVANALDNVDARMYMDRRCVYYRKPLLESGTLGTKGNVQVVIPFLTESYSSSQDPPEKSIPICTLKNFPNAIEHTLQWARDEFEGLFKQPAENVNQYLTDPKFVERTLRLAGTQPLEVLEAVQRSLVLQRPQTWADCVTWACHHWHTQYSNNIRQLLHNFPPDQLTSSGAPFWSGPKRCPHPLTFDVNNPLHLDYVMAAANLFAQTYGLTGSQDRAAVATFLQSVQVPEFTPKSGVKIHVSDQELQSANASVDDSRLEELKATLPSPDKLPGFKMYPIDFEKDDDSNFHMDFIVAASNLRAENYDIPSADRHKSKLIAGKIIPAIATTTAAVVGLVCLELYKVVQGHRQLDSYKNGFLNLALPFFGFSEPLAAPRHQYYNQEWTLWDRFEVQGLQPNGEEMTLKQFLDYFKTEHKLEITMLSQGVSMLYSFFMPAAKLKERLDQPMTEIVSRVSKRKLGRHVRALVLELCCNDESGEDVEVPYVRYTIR
Consider V82F, for which the “effect of a mutation on the interaction” value is “decreasing interaction”.

The variants in another test derive from B1. Conditions: with uba1_rat Uba1, Q5U300.
Sequence of uba1_rat Uba1, Q5U300 (Q5U300 whole entry): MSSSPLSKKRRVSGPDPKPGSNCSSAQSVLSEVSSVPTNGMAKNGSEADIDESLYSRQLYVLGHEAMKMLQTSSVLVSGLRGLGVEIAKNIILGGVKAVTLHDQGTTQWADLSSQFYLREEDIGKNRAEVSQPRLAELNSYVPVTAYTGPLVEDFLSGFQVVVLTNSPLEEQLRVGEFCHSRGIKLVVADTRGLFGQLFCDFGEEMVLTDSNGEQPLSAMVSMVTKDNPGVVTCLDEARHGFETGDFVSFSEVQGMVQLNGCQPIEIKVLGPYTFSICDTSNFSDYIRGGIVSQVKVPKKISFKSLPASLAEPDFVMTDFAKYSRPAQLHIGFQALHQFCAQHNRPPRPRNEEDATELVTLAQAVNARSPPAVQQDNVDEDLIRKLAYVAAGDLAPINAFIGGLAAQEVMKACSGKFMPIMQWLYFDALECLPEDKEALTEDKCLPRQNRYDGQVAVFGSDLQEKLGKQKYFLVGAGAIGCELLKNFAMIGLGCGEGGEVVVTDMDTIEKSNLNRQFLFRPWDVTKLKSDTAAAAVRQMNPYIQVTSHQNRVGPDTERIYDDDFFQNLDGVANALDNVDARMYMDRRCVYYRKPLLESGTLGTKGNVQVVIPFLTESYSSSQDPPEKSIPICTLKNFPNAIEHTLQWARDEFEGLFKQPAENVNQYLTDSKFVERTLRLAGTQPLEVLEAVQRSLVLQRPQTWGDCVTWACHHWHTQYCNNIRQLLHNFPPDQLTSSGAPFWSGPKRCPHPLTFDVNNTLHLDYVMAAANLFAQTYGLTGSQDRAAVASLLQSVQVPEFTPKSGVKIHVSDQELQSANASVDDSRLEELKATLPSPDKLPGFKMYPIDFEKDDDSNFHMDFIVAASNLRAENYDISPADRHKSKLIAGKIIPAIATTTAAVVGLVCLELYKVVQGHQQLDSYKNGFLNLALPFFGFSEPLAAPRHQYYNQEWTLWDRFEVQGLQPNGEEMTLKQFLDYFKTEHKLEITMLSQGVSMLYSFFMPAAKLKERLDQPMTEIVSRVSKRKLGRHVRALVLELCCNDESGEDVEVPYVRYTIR
On to V82F, for which the “effect of a mutation on the interaction” value is given as “decreasing interaction”.
